pKd: −log10 of the molar value.
Tests used:
CaMKII^L308BzF (human) [1] = biological target: CaMKII^L308BzF (human) (UniProt Q9UQM7); assay: mass photometry
CaMKII^L308BzF (human) [2] = biological target: CaMKII^L308BzF (human) (UniProt Q9UQM7); assay: SEC
CaMKII^L308BzF (human) [3] = biological target: CaMKII^L308BzF (human) (UniProt Q9UQM7); assay: cross-linking
[4] = biological target: Human wild-type CaMKII α (CaMKII^WT) (human) (UniProt Q9UQM7); assay: mass photometry

UniProt Q9UQM7, sequence (Q9UQM7 6-478): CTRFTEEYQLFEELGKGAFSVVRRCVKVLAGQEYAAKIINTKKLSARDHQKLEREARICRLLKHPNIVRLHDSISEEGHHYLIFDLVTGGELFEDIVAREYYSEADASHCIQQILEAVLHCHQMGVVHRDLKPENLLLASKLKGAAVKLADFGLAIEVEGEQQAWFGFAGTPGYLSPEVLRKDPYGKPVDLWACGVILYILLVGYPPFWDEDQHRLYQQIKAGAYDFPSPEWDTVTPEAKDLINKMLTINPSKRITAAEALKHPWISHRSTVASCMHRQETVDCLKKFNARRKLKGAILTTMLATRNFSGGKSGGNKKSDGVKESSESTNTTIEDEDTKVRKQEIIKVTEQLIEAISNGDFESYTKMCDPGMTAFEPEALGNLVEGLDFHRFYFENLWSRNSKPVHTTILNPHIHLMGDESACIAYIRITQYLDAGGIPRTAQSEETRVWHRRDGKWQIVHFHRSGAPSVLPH

## CaMKII^L308BzF (from UniProt Q9UQM7 6-478) (enzyme)
CaMKII^L308BzF (human) [1]
  stoichiometry N: 12 subunits
CaMKII^L308BzF (human) [2]
  stoichiometry N: 12 subunits

## His-tagged Calmodulin (Calbiochem) (from UniProt P0DP23 1-149) (natural protein)
CaMKII^L308BzF (human) [3]
  pKd: 5.60
CaMKII^L308BzF (human) [1]
  stoichiometry N (Calmodulin per CaMKII dodecamer): 12

## Human Calmodulin (self-made) (from UniProt P0DP23 1-149) (natural protein)
[4]
  stoichiometry N (Calmodulin per CaMKII dodecamer): 5
  stoichiometry N (Calmodulin per CaMKII holoenzyme): 6

Source: PMC10588329
